The target in assay [1] is T1, Recombinant αVβ3-Fc integrin (UniProt P06756 31-992; P05106 27-718).
T1 chain 1: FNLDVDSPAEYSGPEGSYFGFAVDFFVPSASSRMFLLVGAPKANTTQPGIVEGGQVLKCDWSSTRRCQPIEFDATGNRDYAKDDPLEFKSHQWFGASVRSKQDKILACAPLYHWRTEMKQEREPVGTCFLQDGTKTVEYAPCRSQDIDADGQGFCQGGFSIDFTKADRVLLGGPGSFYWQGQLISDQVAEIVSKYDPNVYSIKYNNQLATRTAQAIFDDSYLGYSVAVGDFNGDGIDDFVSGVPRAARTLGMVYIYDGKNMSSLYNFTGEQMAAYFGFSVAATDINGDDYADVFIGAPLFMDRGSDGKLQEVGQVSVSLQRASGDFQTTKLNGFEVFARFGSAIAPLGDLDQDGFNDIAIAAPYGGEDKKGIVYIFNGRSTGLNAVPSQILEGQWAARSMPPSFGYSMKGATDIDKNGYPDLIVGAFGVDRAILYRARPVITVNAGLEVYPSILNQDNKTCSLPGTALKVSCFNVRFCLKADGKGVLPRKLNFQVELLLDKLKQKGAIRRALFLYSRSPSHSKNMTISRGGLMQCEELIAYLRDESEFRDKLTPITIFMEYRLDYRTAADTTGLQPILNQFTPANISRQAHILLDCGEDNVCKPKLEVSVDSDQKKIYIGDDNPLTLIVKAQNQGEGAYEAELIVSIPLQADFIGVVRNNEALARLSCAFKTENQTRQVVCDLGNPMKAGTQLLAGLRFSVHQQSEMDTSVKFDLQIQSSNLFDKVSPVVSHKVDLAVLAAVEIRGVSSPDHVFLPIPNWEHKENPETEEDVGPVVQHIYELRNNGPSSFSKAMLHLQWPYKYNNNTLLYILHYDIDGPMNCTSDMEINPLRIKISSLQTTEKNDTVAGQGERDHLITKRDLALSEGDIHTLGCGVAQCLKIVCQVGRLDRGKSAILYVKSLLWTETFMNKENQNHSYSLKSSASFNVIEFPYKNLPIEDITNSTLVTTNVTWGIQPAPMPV
T1 chain 2: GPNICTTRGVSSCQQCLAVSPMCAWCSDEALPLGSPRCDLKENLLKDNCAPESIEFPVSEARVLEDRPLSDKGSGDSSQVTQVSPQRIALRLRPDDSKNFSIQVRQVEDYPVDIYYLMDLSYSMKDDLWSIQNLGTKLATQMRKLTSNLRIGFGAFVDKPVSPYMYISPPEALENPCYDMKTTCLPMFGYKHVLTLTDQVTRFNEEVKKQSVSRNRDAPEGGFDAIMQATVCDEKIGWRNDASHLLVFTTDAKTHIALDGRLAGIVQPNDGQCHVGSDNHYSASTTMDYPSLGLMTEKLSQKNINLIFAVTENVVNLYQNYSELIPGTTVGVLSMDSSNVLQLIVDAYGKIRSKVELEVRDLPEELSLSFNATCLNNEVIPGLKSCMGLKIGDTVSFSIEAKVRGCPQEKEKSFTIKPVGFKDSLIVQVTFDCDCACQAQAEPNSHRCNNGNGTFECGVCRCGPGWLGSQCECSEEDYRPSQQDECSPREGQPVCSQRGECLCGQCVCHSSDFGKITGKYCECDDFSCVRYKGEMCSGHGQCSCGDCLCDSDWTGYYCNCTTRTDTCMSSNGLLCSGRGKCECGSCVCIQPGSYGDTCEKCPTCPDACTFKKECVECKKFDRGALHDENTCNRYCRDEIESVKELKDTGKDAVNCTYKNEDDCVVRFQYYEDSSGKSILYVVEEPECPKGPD
The assay can be described thus: zero force, optical tweezers.

In assay [2] the target is T2, Commercially purified human Syndecan (ectodomain)-4-Fc (human, UniProt P31431 19-145).
T2 chain: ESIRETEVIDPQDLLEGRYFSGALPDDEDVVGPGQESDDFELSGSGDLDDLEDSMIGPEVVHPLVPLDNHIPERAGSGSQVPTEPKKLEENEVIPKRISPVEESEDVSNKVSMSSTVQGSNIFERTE
The assay can be described thus: zero force, optical tweezers.

For assay [3], the target named is T3, αVβ3-Fc + Syndecan-4-Fc (both on one bead) ( | human, UniProt P06756 31-992; P05106 27-718; P31431 19-145).
T3 chain 1: T1 chain 1
T3 chain 2: T1 chain 2
T3 chain 3: T2 chain
The assay can be described thus: zero force, optical tweezers, both αvβ3-Fc and Syndecan-4-Fc on the bead.

Assay [4] has as its target T1, Recombinant αVβ3-Fc integrin. Briefly: zero force, optical tweezers, with TRAIL-R2-Fc control on the bead.
Assay [5] deals with T2, Commercially purified human Syndecan …. The assay is described as above.

The koff is the rate constant with which the complex falls apart.

B1: Thy-1-Fc wild type (Fc fusion)
chain: QKVTSLTACLVNQNLRLDCRHENNTKDNSIQHEFSLTREKRKHVLSGTLGIPEHTYRSRVTLSNQPYIKVLTLANFTTKDEGDYFCELQVSGANPMSSNKSISVYRDKLVKC
As to B1, the koff in assay [1] was determined as 0.14 s⁻¹; in assay [2], 0.32 s⁻¹; in assay [3] it was 0.08 s⁻¹; in assay [4], 0.15 s⁻¹; in assay [5], 0.28 s⁻¹.

Values taken from article PMC7550751, “Application of Force to a Syndecan-4 Containing Complex With Thy-1–αVβ3 Integrin Accelerates Neurite Retraction” (Frontiers in Molecular Biosciences, 2020).
